Molecular target: the molecule itself
Experiment: SEC + other: sucrose gradient centrifugation

B1: rat dynamin 1 lacking the proline-rich domain (Dyn1 ΔPRD) (domain or fragment)
chain: MGNRGMEDLIPLVNRLQDAFSAIGQNADLDLPQIAVVGGQSAGKSSVLENFVGRDFLPRGSGIVTRRPLVLQLVNSTTEYAEFLHCKGKKFTDFEEVRLEIEAETDRVTGTNKGISPVPINLRVYSPHVLNLTLVDLPGMTKVPVGDQPPDIEFQIRDMLMQFVTKENCLILAVSPANSDLANSDALKIAKEVDPQGQRTIGVITKLDLMDEGTDARDVLENKLLPLRRGYIGVVNRSQKDIDGKKDITAALAAERKFFLSHPSYRHLADRMGTPYLQKVLNQQLTNHIRDTLPGLRNKLQSQLLSIEKEVDEYKNFRPDDPARKTKALLQMVQQFAVDFEKRIEGSGDQIDTYELSGGARINRIFHERFPFELVKMEFDEKELRREISYAIKNIHGIRTGLFTPDLAFEATVKKQVQKLKEPSIKCVDMVVSELTSTIRKCSEKLQQYPRLREEMERIVTTHIREREGRTKEQVMLLIDIELAYMNTNHEDFIGFANAQQRSNQMNKKKTSGNQDEILVIRKGWLTINNIGIMKGGSKEYWFVLTAENLSWYKDDEEKEKKYMLSVDNLKLRDVEKGFMSSKHIFALFNTEQRNVYKDYRQLELACETQEEVDSWKASFLRAGVYPERVGDKEKASETEENGSDSFMHSMDPQLERQVETIRNLVDSYMAIVNKTVRDLMPKTIMHLMINNTKEFIFSELLANLYSCGDQNTLMEESAEQAQRRDEMLRMYHALKEALSIIGDINTTTVST
- stoichiometry N: 2
